{"source": "paper PMC11263360", "about": "“The structural basis of the activation and inhibition of DSR2 NADase by phage proteins” (Nature Communications, 2024)", "binders": {"B1": {"name": "DSAD1 from SPbeta phage (co-expressed with DSR2) (natural protein, UniProt Q796A8 1-120, looked up)", "chain": "MIEIFKDTGATHDLVYHSKINTFVWDVEFDIVLSDSKELNKCYFVKCFNPYRINGKCDFAVSSIDIFSEGKRLLIENEFNFKITKAVHVATSKDVTEIVLHLSERISSPFPIVKEVVYLD", "notes": "DSAD1, SPbeta phage, WP_004399562, full length; source: E. coli BL21 (DE3), co-expressed with DSR2, complex co-purified (as apo DSR2: Ni-NTA, size exclusion)"}, "B2": {"name": "DSR2 from Bacillus subtilis 29 R, wild type (enzyme, UniProt P0DXN8 1-1005, looked up)", "chain": "MVKVDLESKRYGEKLKEVFLMLDNNVVECIKEITESSRNGKLVFFVGAGVSTLSDYPQWWRLVDKYHEELYGSPKKGNYSSDEYLRIPQIFYNVKGEMAFDGILKDFFQVDKPTNPIHDKILAMNPAHVITTNYDNLIDTACWKRGKYFSVISAEEDVANATSSRYLLKVHGDFRKGFKGENVVLKEDDYLNYDQNYPLISNLMKTIIATHTIVFIGYGLGDYNINMLLNWVRKLQKDSFHKPFFIRTDPSPIENETLIYYENKGLRIIDAASLIDSNEYDYLERYSAVMDLLIESQENKFITKDDEVIDYIYGKISPLFALQYIRKIDLKHVFEYDYHFEVNGTVVRHKNKGFGYMERFFELKESCDERSKLSKKQYERFNALFNFFEKNGVICMAKDAGTLNTSIEINSLAYHGKYDVMKKFIEEQSVSIEDDYKKAFFLACLGRWEESYDLYSNIILNSIDESNGCVYYLSQINRYRIYQSITQAVTQFNGLGLLTFGRHYKPFTDEFLARIEREMTNFNIDDLFNGMPFEFQKKYKILEFLSDNQFLYDDTVKLFELTNKVRSEMSEGSYSFGMSSDIVVLLRLYDNLRFLYENCLWSVSFHEFHQYIRNSMSLLIEKAEYERTRDIDELGFSFFGKKSGFFMEYYDFVNISRHFKIDDIKNLERSCSIDKIRFGEQEKIEEYLVGIAEEITKQFSANGMNVVFYTQFISEAKAALYFAKYVKLSEEGLGKIVKALLFYFPERDLDIGKRYVWLERLTKCNELPKSIISIIDDFLVLQAEKHIDQNYSEVSSNGLYSRDYGALIKHFEKNFISKRLSEITLCLTQDKQKQIDFLFKLLPLLSTNAKSHLLSFKSVENINDLMNGIRIGLIDEFTPEHEELIIEYLETRKVNYIVEKEKGIQTFSSNDYMSTFGIWYFLEEINNSKMEEFIGMDDQYDFFVDPENFDYKKFIPSWLKNYNDKLLGKIAGNKHMKHHVIEVLKERVKNSNDKRYLEILMNYFI", "notes": "DSR2, Sir2 domain-containing NADase, Bacillus subtilis 29 R, WP_029317421, full length (domains described over residues 1-1005); Cloned into pRSF-32M or pET-32M.3C (both add N-terminal thioredoxin and 6xHis); Crosslinked with BS3 for part of the cryo-EM data; also called WT DSR2; wild-type (WT) DSR2; source: E. coli BL21 (DE3), purified (Ni-NTA, size exclusion); for the DSR2-DSAD1 complex …"}, "B3": {"name": "DSR2 (H171A) catalytically inactive mutant (enzyme, Bacillus subtilis 29 R, UniProt P0DXN8 1-1005, looked up)", "chain": "B2 chain with H171A", "notes": "DSR2, Bacillus subtilis 29 R, WP_029317421, full length, with H171A; Crosslinked with 1 mM BS3 before cryo-EM; source: E. coli BL21 (DE3), purified (Ni-NTA, size exclusion)"}, "B4": {"name": "DSR2 Y260E mutant (enzyme, Bacillus subtilis 29 R, UniProt P0DXN8 1-1005, looked up)", "chain": "B2 chain with Y260E", "notes": "DSR2, Bacillus subtilis 29 R, WP_029317421, full length, with Y260E; AUC mass 215 kDa against 425 kDa for the wild type; source: E. coli BL21 (DE3), purified"}, "B5": {"name": "tail tube protein (TTP) from SPR phage (natural protein, UniProt A0AAE9G628 1-264, looked up)", "chain": "MKTVIQDTADVYFKRKSDGKLVFTAEAQTASFSQAISEEKLRGGIGNKPLYILKSEKEINLTVKNAFFDLEWLAMTQGETIQEETKVKVFDREHGLIVDDTNKVTLKGKPVSDVTFYNKKGLTYKIAVSTDGTYTIPTAFAAAKDKLTAVYQIEKVGRRLAIKASKFSERYEVEYRTIAYNPDTEEVYSDIYIQFPNVSPSGEFEMSLENGNALAPEIKFEALADTDTDEMAVVIEASRDENTAAPVEDTTGSTQSSDLGGTTE", "notes": "tail tube protein (TTP), SPR phage, WP_010328117, full length; Residues 80-167 have no density in the cryo-EM map; source: E. coli BL21 (DE3), purified (Ni-NTA, size exclusion)"}}, "key": {"[1]": {"target": "B2", "test": "cryo-EM structure; DSR2-DSAD1 complex co-expressed in E. coli and co-purified; uncrosslinked and BS3-crosslinked samples", "conditions": "both partners purified"}, "[2]": {"target": "the molecule itself", "test": "cryo-EM structure; DSR2-DSAD1 complex co-expressed in E. coli and co-purified; uncrosslinked and BS3-crosslinked samples"}, "[3]": {"target": "the molecule itself", "test": "cryo-EM structure; DSR2 (H171A) alone, crosslinked with 1 mM BS3 in the presence of NAD+; 20 mM HEPES pH 7.5, 100 mM NaCl, 0.5 mM TCEP"}, "[4]": {"target": "the molecule itself", "test": "AUC; sedimentation velocity, 12 °C, 0.8 mg/ml, 20 mM Tris-HCl pH 7.5, 100 mM NaCl, 1 mM DTT; SEDFIT"}, "[5]": {"target": "B3", "test": "cryo-EM structure; purified DSR2 (H171A)-TTP complex, crosslinked with 1 mM BS3, with 1 mM NAD+; 20 mM HEPES pH 7.5, 100 mM NaCl, 0.5 mM TCEP", "conditions": "both partners purified"}}, "note": "Positions count from the first letter of the chain named. Names and notes keep the numbering of the source.", "data": [{"binder": "B1", "values": [{"measurement": "stoichiometry N", "setting": "[1]", "value": "0.5 DSAD1 per DSR2 (2:4)"}]}, {"binder": "B2", "values": [{"measurement": "stoichiometry N", "setting": "[2]", "value": 4}]}, {"binder": "B3", "values": [{"measurement": "stoichiometry N", "setting": "[3]", "value": 4}]}, {"binder": "B4", "values": [{"measurement": "binding result", "setting": "[4]", "value": "binds"}]}, {"binder": "B5", "values": [{"measurement": "stoichiometry N", "setting": "[5]", "value": "0.5 TTP per DSR2 (2:4)"}]}]}
